Molecular target: Recombinant SCY2 (Scylla paramamosain)
Test: SPR; Biacore T200, CM5 chip; rSCY2 immobilised (~1,000 RU); rScyreprocin 12.5-400 nM flowed over; multiple cycle kinetics, 25°C, 30 μl/min, HEPES-buffered saline

Substance: His-tagged scyreprocin (rScyreprocin) (natural protein)
- Kd: 0.0208 µM
